Holding throughout (assay): SPR
(Surface plasmon resonance follows binding to a sensor surface in real time, without labels.)

Assay [1] addresses T1, Ad5 hexon, on wild-type human adenovirus type 5 virions (human adenovirus type 5, UniProt P04133 2-952).
T1 chain: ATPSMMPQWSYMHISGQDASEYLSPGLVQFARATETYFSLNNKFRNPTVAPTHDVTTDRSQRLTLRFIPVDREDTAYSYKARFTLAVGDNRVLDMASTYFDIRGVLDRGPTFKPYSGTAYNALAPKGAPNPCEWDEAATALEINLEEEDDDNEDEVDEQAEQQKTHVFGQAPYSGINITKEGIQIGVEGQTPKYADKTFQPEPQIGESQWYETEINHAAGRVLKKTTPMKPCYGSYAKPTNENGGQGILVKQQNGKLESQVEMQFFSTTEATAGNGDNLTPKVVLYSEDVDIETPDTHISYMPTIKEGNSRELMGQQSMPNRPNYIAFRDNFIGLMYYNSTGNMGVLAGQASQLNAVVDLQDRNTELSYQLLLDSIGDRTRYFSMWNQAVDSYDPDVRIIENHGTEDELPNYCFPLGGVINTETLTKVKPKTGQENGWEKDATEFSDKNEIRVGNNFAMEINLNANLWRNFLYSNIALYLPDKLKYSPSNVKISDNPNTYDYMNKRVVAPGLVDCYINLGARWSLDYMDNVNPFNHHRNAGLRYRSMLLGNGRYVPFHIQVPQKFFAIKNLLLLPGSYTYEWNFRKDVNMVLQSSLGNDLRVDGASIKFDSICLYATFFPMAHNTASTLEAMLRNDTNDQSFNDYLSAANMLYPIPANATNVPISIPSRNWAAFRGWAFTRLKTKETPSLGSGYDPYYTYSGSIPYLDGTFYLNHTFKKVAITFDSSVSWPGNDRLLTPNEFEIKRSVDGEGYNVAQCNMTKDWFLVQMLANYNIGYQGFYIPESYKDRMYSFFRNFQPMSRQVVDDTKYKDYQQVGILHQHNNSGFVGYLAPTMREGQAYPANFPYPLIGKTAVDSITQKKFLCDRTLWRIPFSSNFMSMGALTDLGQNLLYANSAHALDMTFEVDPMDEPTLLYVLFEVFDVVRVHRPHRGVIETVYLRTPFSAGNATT

Assay [2] has as its target T2, Ad6 hexon, on wild-type human adenovirus type 6 virions (human adenovirus type 6).
T2 chain: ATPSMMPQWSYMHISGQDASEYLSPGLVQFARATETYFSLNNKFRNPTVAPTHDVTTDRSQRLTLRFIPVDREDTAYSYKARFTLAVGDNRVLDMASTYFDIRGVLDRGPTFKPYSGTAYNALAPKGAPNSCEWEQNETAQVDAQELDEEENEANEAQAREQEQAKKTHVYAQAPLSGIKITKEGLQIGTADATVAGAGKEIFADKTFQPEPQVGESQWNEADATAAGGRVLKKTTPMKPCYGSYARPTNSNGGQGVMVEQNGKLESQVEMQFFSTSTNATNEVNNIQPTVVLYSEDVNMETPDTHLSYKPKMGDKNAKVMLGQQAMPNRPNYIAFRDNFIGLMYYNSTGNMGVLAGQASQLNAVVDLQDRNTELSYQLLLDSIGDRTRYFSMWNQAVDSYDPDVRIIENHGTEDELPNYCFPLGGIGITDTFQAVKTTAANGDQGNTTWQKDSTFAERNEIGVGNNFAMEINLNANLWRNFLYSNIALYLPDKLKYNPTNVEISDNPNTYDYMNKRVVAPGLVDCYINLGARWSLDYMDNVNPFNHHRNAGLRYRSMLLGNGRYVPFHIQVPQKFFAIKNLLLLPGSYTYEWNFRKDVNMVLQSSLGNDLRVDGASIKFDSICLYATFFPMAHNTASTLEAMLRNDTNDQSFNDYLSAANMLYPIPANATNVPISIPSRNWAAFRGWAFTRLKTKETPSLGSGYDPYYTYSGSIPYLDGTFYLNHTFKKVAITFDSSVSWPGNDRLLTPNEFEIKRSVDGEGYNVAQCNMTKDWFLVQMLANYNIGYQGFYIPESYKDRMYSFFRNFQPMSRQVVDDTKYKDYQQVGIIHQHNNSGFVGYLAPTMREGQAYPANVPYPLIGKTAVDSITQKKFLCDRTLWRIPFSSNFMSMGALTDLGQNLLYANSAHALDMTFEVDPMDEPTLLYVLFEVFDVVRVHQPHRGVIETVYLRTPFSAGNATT

Assay [3] concerns the target T3, Ad2 hexon, on wild-type human adenovirus type 2 virions (human adenovirus type 2, UniProt P03277 1-968).
T3 chain: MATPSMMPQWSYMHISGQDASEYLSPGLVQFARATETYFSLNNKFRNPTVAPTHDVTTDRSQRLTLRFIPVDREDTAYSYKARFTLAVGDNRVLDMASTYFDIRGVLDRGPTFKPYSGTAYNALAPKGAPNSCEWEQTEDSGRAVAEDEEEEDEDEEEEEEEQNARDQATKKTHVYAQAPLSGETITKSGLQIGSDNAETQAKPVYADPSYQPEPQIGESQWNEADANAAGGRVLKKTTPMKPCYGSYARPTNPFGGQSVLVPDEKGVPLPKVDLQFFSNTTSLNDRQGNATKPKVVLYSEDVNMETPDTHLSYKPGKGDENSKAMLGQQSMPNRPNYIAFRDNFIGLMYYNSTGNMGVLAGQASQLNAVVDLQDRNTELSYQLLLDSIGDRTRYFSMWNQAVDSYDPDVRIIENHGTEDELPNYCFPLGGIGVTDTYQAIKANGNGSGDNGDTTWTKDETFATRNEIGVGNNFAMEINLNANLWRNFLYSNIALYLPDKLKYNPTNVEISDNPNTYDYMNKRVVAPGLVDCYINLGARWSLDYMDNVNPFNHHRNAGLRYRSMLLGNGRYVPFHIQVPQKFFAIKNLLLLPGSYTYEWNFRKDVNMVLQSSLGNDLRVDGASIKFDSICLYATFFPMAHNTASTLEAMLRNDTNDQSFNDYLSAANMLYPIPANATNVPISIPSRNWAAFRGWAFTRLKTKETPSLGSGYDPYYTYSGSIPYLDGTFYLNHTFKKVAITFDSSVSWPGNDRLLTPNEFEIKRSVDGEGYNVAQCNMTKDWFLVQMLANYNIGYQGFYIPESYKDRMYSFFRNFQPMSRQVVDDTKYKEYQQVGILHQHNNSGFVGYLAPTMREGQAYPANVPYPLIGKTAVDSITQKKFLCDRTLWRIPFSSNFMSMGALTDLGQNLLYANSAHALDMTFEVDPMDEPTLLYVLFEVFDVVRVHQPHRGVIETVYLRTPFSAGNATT

B1: mouse coagulation factor X (natural protein)
chain 1: ANSFFEEFKKGNLERECMEEICSYEEVREIFEDDEKTKEYWTKYKDGDQCESSPCQNQGACRDGIGGYTCTCSEGFEGKNCELFVRKLCRLDNGDCDQFCREEQNSVVCSCASGYFLGNDGKSCISTAPFPCGKITTGRR
chain 2: VALNTSDSELDLEDALLDEDFLSPTENPIELLNLNETQPERSSDDLVRIVGGRECKDGECPWQALLINEDNEGFCGGTILNEFYILTAAHCLHQARRFKVRVGDRNTEKEEGNEMVHEVDVVIKHNKFQRDTYDYDIAVLRLKTPITFRMNVAPACLPQKDWAESTLMTQKTGIVSGFGRTHEKGRQSNILKMLEVPYVDRNTCKLSTSFSITQNMFCAGYEAKLEDACQGDSGGPHVTRFKNTYYVTGIVSWGEGCARKGKYGIYTKVTTFLKWIDRSMKARVGPTAETPRTAGPPN
modifications: gamma-carboxylated glutamate residues in the Gla domain
On to B1, for which the figures for the Kd in assay [1], in assay [2] and in assay [3] were 0.35 nM, 0.42 nM and 0.76 nM, respectively.

In general, Kd refers to the constant that tells how readily two partners part at equilibrium. A lower Kd goes with tighter binding.

Values taken from publication PMC9536601 (2022).
